Values of other authors as cited in publication PMC11446229.
Like-named read-outs stand apart in the source and are kept apart here.

Legend:
[1] = target: IscS (Escherichia coli) (UniProt P0A6B7)
[2] = target: SufS (Bacillus subtilis) (UniProt O32164)
[3] = target: IscS (Escherichia coli) (UniProt P0A6B7); remark: listed apart in the source
[4] = target: SufS (Escherichia coli) (UniProt P77444); assay: surface plasmon resonance
SufS (Escherichia coli), sequence (P77444 whole entry): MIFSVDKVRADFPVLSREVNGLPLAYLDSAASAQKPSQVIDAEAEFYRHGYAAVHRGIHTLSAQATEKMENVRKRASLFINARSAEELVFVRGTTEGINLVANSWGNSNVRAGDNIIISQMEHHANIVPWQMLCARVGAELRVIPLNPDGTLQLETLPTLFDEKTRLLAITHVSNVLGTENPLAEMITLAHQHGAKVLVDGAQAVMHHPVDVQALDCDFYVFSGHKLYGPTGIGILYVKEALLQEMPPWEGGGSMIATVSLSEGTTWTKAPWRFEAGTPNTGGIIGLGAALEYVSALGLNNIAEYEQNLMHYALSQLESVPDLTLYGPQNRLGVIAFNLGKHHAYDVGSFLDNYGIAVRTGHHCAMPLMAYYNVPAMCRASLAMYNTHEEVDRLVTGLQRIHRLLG

IscS (Escherichia coli), sequence (P0A6B7 whole entry): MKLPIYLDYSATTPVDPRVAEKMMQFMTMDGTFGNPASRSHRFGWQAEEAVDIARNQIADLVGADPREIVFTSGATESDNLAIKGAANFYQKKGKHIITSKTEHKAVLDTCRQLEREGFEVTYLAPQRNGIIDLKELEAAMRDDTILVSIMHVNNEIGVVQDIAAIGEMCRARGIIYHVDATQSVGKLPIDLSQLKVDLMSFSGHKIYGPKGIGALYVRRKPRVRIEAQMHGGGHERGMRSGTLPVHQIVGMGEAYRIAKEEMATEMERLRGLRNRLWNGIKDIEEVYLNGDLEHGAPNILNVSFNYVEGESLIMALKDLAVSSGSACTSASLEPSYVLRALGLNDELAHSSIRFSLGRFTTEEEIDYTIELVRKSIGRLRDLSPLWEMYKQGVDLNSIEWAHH
SufE, sequence (P76194 whole entry): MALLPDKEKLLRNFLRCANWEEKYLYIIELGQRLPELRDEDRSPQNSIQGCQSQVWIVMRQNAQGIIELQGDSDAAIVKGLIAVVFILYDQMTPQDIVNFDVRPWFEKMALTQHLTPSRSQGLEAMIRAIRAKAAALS
TusA, sequence (P0A890 whole entry): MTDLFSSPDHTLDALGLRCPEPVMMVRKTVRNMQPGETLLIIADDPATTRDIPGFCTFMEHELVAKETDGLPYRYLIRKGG
SufS (Bacillus subtilis), sequence (O32164 whole entry): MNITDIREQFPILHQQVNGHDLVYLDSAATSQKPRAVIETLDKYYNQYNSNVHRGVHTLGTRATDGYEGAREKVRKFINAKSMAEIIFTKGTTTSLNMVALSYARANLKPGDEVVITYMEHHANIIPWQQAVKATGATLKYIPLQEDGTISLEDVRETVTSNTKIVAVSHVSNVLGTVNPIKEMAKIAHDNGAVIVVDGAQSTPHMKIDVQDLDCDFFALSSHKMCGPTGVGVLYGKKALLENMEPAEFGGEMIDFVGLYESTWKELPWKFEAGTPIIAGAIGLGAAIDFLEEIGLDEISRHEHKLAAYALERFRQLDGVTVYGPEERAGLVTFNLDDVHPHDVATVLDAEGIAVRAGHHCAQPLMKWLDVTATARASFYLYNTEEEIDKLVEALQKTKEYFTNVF
CyaY, sequence (P27838 whole entry): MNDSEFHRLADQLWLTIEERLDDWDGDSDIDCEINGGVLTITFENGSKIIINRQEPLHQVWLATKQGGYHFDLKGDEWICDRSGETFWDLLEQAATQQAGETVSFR
SufU, sequence (O32163 whole entry): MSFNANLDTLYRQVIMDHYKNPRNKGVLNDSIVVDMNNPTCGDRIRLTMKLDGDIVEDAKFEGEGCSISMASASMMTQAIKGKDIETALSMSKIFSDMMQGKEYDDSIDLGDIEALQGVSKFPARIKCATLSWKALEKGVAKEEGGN

For TusA (from UniProt P0A890), the Kd [1] is listed as 8 µM.
In the case of SufU (from UniProt O32163), the Kd [2] is listed as 3 µM.
For CyaY (from UniProt P27838), the Kd [3] is listed as 23 µM.
In the case of SufE (from UniProt P76194), the Kd [4] is given as 0.36 µM.
